# Laboratory results taken from the DeepSol protein solubility set.
# Experiment: soluble on expression in E. coli; label from the status in PepcDB or PDB records
row,Sequence,soluble on expression in E. coli
1,MLVEDSGHHLPESADIENALDLLLKAQLERAFGPELAEHFWAARQPRTLDERLAFIRKCWIGVFKDSPLSTFGLERLEQLERLCRSKRRGRELSAAEHHQFAEELARLWEQVQRLLPRAAPETSYASSASAGGVHSGDAHTPATLSDAESAHAAPEAMRIEAPATSARSASGCMARVSSDVAAAATNVSLVVLDGENIAWAHGQNAVFSPKGIAIAVDFFRKRGYRCVVFLPDYRRKRADLPTVSASDALVFVPAGEYDDTFALGYAVGHDAILVTNDLLQDHLDQFYPDEGEAREALRKWLGSHRCSFTFVGDEFLPNPHFFLP,not soluble
2,MNKFVRLAAIAGLLLAGASYATDTTYRIDQLPQLRQEPEHATVSERVTSRFTRSHYRQFALDDQFSAKIFDRYLNMLDYSHNVLLASDVAQFADKKYSLDKELKSGQLDTPFALFNLAQKRRFERYQYALSVLDRPMVFTGNDTIDIDRAKAPWPSSEAELNALWDAKVKYDQLNLKLAGKTDKEIKETLTKRYQSAIKRLTQSNSEDVFQLIMNAFAREIDPHTNYLSPRNTEQFNTEMSLSLEGIGAVLQMDDDYTLINSMVPGGPAAKSKTIAVGDRVIGVGQAGKPMVDVIGWRLDDVVALIKGPKGSKVRLEILPAGKGTKPRTVTLTRERIRLEDRAVKMSVKTIGKERVGVLDIPGFYVGLTEDVKVQLQKLEKQNVSSIIIDLRSNGGGALTEAVSLSGLFIPSGPVVQVRDNNGKVREDSDTDGVVYYKGPLVVLVDRYSASASEIFAAAMQDYGRALIVGEPTFGKGTVQQYRSLNRIYDQMLRPEWPALGSLQYTIQKFYRVDGGSTQRKGVTPDIVMPTGVDPAETGENFEDNALPWDRINAASYTKTGDLKPWEPELLKNHAERIAANPEFQYIQKDIERYKALKDKRNIVSLNYAQREKENRDDDMTRLTRLNERFIREGKKPLKSLDDLPKDYQEPDPYLDETVNIALDLAHKEKAQPQIASRPVAAATAGATVK,not soluble
3,MSLAVVRTINGDVSPDTLGVVNAHDHLIRVGAGEVYIDPDHLLDDVDKAAQEATYFVEASKSWAAGGTIIDMCPASSGRGVLKTLQVVEKVPGLQVVQATGFHQQKVYLEWRQSWVNQYTVTQIADLLIADIVEGIDRFDYMGPIVERTNVKAGVIKWATAYGKITEWEKKSGQAVAIASKETGCPINTHVTAGTCGPEQARFLVDQGVDPAKIAIGHMQRNWDPWVHEQICKLGCYVELDGTNRIKYVPDNTRVNLVKTLGEKGYGKQILLGTDSGKASYQKVYGSVSGIDYDPAVFCPRLVEDEGVDRDYVNDLLINNAATFFGFEPLAEGHHHHHH,not soluble
4,MSSRHRLDLDGSGRGDRRRSPNRRSRSRSRSPHRRSSPDRKRQIGAVGNMKIQINPYNNQPFSNRYWAIWEKRSQLPVWEYKEKFMELLRNNQCITLVGETGSGKTTQIPQWAVEFMKQQQQGQPPGQARLVACTQPRRVAAMSVATRVAEEMDVVLGQEVGYSIRFEDCISERTVLKYCTDGMLLREAMNSPLLDKYKVLILDEAHERTLATDILMGLIKEIVRNRADIKVVIMSATLDAGKFQRYFEDCPLLSVPGRTFPVEIFFTPNAEKDYLEAAIRTVIQIHMVEEVEGDILLFLTGQEEIEEACKRIDREIQALGADAGALSCIPLYSTLPPAAQQRIFEPAPPNRPNGAISRKCVISTNIAETSLTIDGVVFVIDPGFSKQKVYNPRIRVESLLVCPISKASAMQRAGRAGRTKPGKCFRLYTETAYGSEMQDQTYPEILRSNLGSVVLQLKKLGTEDLVHFDFMDPPAPETLMRALELLNYLQAINDDGELTELGSLMAEFPLDPQLAKMLITSTELNCSNEILSITAMLSVPQCWVRPNEMRTEADEAKARFAHIDGDHLTLLNVYHSFKQNQEDPQWCYDNFINYRTMKTADTVRTQLSRVMDKYNLRRVSTDFKSRDYYLNIRKALVAGFFMQVAHLERSGHYVTVKDNQLVNLHPSTVLDHKPEWALYNEFVLTTKNFIRTVTDVRPEWLLQIAPQYYDLDNFPDGDTKRKLTTVMQTLQRNAGRGY,soluble
5,MPTKVLVNATYLHSYFREWVKGNIWIHGDRIVYAGERLPDRIDESCEIIDCRGYVLVPGYIEPHVHPFQLYNPHSFARYAAMYGTTTLLNDNLFFLLQLEHHHHHH,not soluble
6,SSNNFNYGAYHSLEAIYHEMDNIAADFPDLARRVKIGHSFENRPMYVLKFSTGKGVRRPAVWLNAGIHSREWISQATAIWTARKIVSDYQRDPAITSILEKMDIFLLPVANPDGYVYTQTQNRLWRKTRSRNPGSSCIGADPNRNWNASFAGKGASDNPCSEVYHGPHANSEVEVKSVVDFIQKHGNFKGFIDLHSYSQLLMYPYGYSVKKAPDAEELDKVARLAAKALASVSGTEYQVGPTCTTVYPASGSSIDWAYDNGIKFAFTFELRDTGTYGFLLPANQIIPTAEETWLGLKTIMEHVRDNLY,soluble
